# Laboratory results from patent publication US20130011378A1, “Stable formulations of a hyaluronan-degrading enzyme” (priority 2011, published 2013).
# Assay: RP-HPLC: insulin percent purity
# Format: physicochemical
# Details: for Percent of insulin main peak: 2-8° C.
# Description: For insulin, 20 μL was injected for each HPLC run.
# The data were processed using Design-Expert® 7.0 (StatEase) and the “historical data” feature. Insulin percent purity was expressed as the percent of main insulin versus all insulin species.
substance,measurement,setting,value
"regular insulin: mature human insulin, SEQ ID NOS: 103 and 104",Percent of insulin main peak,"50 mM NaCl, pH 7.0, 0 months",97.64%
same,Percent of insulin main peak,"50 mM NaCl, pH 7.0, 0.25 months",97.59%
same,Percent of insulin main peak,"50 mM NaCl, pH 7.0, 0.5 months",97.50%
same,Percent of insulin main peak,"50 mM NaCl, pH 7.0, 1 month",97.44%
same,Percent of insulin main peak,"50 mM NaCl, pH 7.0, 3 months",97.24%
same,Percent of insulin main peak,"50 mM NaCl, pH 7.0, 5 months",97.73%
same,Percent of insulin main peak,"50 mM NaCl, pH 7.0, 9 months",97.20%
same,Percent of insulin main peak,"50 mM NaCl, pH 7.2, 0 months",97.64%
same,Percent of insulin main peak,"50 mM NaCl, pH 7.2, 0.25 months",97.59%
same,Percent of insulin main peak,"50 mM NaCl, pH 7.2, 0.5 months",97.56%
same,Percent of insulin main peak,"50 mM NaCl, pH 7.2, 1 month",97.46%
same,Percent of insulin main peak,"50 mM NaCl, pH 7.2, 3 months",97.47%
same,Percent of insulin main peak,"50 mM NaCl, pH 7.2, 5 months",97.75%
same,Percent of insulin main peak,"50 mM NaCl, pH 7.2, 9 months",97.27%
same,Percent of insulin main peak,"50 mM NaCl, pH 7.4, 0 months",97.58%
same,Percent of insulin main peak,"50 mM NaCl, pH 7.4, 0.25 months",97.54%
same,Percent of insulin main peak,"50 mM NaCl, pH 7.4, 0.5 months",97.48%
same,Percent of insulin main peak,"50 mM NaCl, pH 7.4, 1 month",97.47%
same,Percent of insulin main peak,"50 mM NaCl, pH 7.4, 3 months",97.45%
same,Percent of insulin main peak,"50 mM NaCl, pH 7.4, 5 months",97.74%
same,Percent of insulin main peak,"50 mM NaCl, pH 7.4, 9 months",97.27%
same,Percent of insulin main peak,"50 mM NaCl, pH 7.6, 0 months",97.65%
same,Percent of insulin main peak,"50 mM NaCl, pH 7.6, 0.25 months",97.58%
same,Percent of insulin main peak,"50 mM NaCl, pH 7.6, 0.5 months",97.33%
same,Percent of insulin main peak,"50 mM NaCl, pH 7.6, 1 month",97.44%
same,Percent of insulin main peak,"50 mM NaCl, pH 7.6, 3 months",97.35%
same,Percent of insulin main peak,"50 mM NaCl, pH 7.6, 5 months",97.66%
same,Percent of insulin main peak,"50 mM NaCl, pH 7.6, 9 months",97.34%
same,Percent of insulin main peak,"80 mM NaCl, pH 7.0, 0 months",97.65%
same,Percent of insulin main peak,"80 mM NaCl, pH 7.0, 0.25 months",97.50%
same,Percent of insulin main peak,"80 mM NaCl, pH 7.0, 0.5 months",97.30%
same,Percent of insulin main peak,"80 mM NaCl, pH 7.0, 1 month",97.20%
same,Percent of insulin main peak,"80 mM NaCl, pH 7.0, 5 months",97.81%
same,Percent of insulin main peak,"80 mM NaCl, pH 7.0, 9 months",96.18%
same,Percent of insulin main peak,"80 mM NaCl, pH 7.2, 0 months",97.57%
same,Percent of insulin main peak,"80 mM NaCl, pH 7.2, 0.25 months",97.59%
same,Percent of insulin main peak,"80 mM NaCl, pH 7.2, 0.5 months",97.30%
same,Percent of insulin main peak,"80 mM NaCl, pH 7.2, 1 month",97.45%
same,Percent of insulin main peak,"80 mM NaCl, pH 7.2, 3 months",97.34%
same,Percent of insulin main peak,"80 mM NaCl, pH 7.2, 5 months",97.64%
same,Percent of insulin main peak,"80 mM NaCl, pH 7.4, 0 months",97.56%
same,Percent of insulin main peak,"80 mM NaCl, pH 7.4, 0.25 months",97.61%
same,Percent of insulin main peak,"80 mM NaCl, pH 7.4, 0.5 months",97.51%
same,Percent of insulin main peak,"80 mM NaCl, pH 7.4, 1 month",97.43%
same,Percent of insulin main peak,"80 mM NaCl, pH 7.4, 3 months",97.43%
same,Percent of insulin main peak,"80 mM NaCl, pH 7.4, 5 months",97.75%
same,Percent of insulin main peak,"80 mM NaCl, pH 7.4, 9 months",97.29%
same,Percent of insulin main peak,"80 mM NaCl, pH 7.6, 0 months",97.63%
same,Percent of insulin main peak,"80 mM NaCl, pH 7.6, 0.25 months",97.62%
same,Percent of insulin main peak,"80 mM NaCl, pH 7.6, 0.5 months",97.52%
same,Percent of insulin main peak,"80 mM NaCl, pH 7.6, 1 month",97.37%
same,Percent of insulin main peak,"80 mM NaCl, pH 7.6, 3 months",97.64%
same,Percent of insulin main peak,"80 mM NaCl, pH 7.6, 5 months",97.67%
same,Percent of insulin main peak,"80 mM NaCl, pH 7.6, 9 months",97.31%
same,Percent of insulin main peak,"110 mM NaCl, pH 7.0, 0 months",97.64%
same,Percent of insulin main peak,"110 mM NaCl, pH 7.0, 0.25 months",97.31%
same,Percent of insulin main peak,"110 mM NaCl, pH 7.0, 0.5 months",97.57%
same,Percent of insulin main peak,"110 mM NaCl, pH 7.0, 1 month",96.64%
same,Percent of insulin main peak,"110 mM NaCl, pH 7.0, 3 months",96.10%
same,Percent of insulin main peak,"110 mM NaCl, pH 7.0, 5 months",97.79%
same,Percent of insulin main peak,"110 mM NaCl, pH 7.2, 0 months",97.62%
same,Percent of insulin main peak,"110 mM NaCl, pH 7.2, 0.25 months",97.46%
same,Percent of insulin main peak,"110 mM NaCl, pH 7.2, 0.5 months",97.35%
same,Percent of insulin main peak,"110 mM NaCl, pH 7.2, 3 months",97.49%
same,Percent of insulin main peak,"110 mM NaCl, pH 7.2, 5 months",97.61%
same,Percent of insulin main peak,"110 mM NaCl, pH 7.2, 9 months",95.91%
same,Percent of insulin main peak,"110 mM NaCl, pH 7.4, 0 months",97.65%
same,Percent of insulin main peak,"110 mM NaCl, pH 7.4, 0.25 months",97.58%
same,Percent of insulin main peak,"110 mM NaCl, pH 7.4, 0.5 months",97.39%
same,Percent of insulin main peak,"110 mM NaCl, pH 7.4, 1 month",97.36%
same,Percent of insulin main peak,"110 mM NaCl, pH 7.4, 3 months",97.36%
same,Percent of insulin main peak,"110 mM NaCl, pH 7.4, 5 months",97.79%
same,Percent of insulin main peak,"110 mM NaCl, pH 7.4, 9 months",96.91%
same,Percent of insulin main peak,"110 mM NaCl, pH 7.6, 0 months",97.58%
same,Percent of insulin main peak,"110 mM NaCl, pH 7.6, 0.25 months",97.57%
same,Percent of insulin main peak,"110 mM NaCl, pH 7.6, 0.5 months",97.60%
same,Percent of insulin main peak,"110 mM NaCl, pH 7.6, 1 month",97.52%
same,Percent of insulin main peak,"110 mM NaCl, pH 7.6, 3 months",97.42%
same,Percent of insulin main peak,"110 mM NaCl, pH 7.6, 5 months",97.61%
same,Percent of insulin main peak,"110 mM NaCl, pH 7.6, 9 months",97.31%
same,Percent of insulin main peak,"140 mM NaCl, pH 7.0, 0 months",97.65%
same,Percent of insulin main peak,"140 mM NaCl, pH 7.0, 0.25 months",97.15%
same,Percent of insulin main peak,"140 mM NaCl, pH 7.0, 1 month",96.39%
same,Percent of insulin main peak,"140 mM NaCl, pH 7.0, 3 months",96.16%
same,Percent of insulin main peak,"140 mM NaCl, pH 7.0, 9 months",95.17%
same,Percent of insulin main peak,"140 mM NaCl, pH 7.2, 0 months",97.56%
same,Percent of insulin main peak,"140 mM NaCl, pH 7.2, 0.25 months",97.37%
same,Percent of insulin main peak,"140 mM NaCl, pH 7.2, 1 month",96.62%
same,Percent of insulin main peak,"140 mM NaCl, pH 7.2, 3 months",96.60%
same,Percent of insulin main peak,"140 mM NaCl, pH 7.2, 9 months",95.49%
same,Percent of insulin main peak,"140 mM NaCl, pH 7.4, 0 months",97.64%
same,Percent of insulin main peak,"140 mM NaCl, pH 7.4, 0.25 months",97.57%
same,Percent of insulin main peak,"140 mM NaCl, pH 7.4, 0.5 months",97.33%
same,Percent of insulin main peak,"140 mM NaCl, pH 7.4, 1 month",97.23%
same,Percent of insulin main peak,"140 mM NaCl, pH 7.4, 3 months",97.38%
same,Percent of insulin main peak,"140 mM NaCl, pH 7.4, 5 months",97.73%
same,Percent of insulin main peak,"140 mM NaCl, pH 7.4, 9 months",96.10%
same,Percent of insulin main peak,"140 mM NaCl, pH 7.6, 0 months",97.64%
same,Percent of insulin main peak,"140 mM NaCl, pH 7.6, 0.25 months",97.61%
same,Percent of insulin main peak,"140 mM NaCl, pH 7.6, 0.5 months",97.41%
same,Percent of insulin main peak,"140 mM NaCl, pH 7.6, 1 month",97.51%
same,Percent of insulin main peak,"140 mM NaCl, pH 7.6, 3 months",97.35%
same,Percent of insulin main peak,"140 mM NaCl, pH 7.6, 5 months",97.56%
same,Percent of insulin main peak,"140 mM NaCl, pH 7.6, 9 months",97.07%
same,insulin main peak percentage,"long term storage at 2-8° C., […] m-cresol, 0.2% phenol",about 97%
